According to patent US20030175929A1 (ORIENTAL YEAST, published 2003):

B1: human creatine kinase M type subunit (enzyme)
chain: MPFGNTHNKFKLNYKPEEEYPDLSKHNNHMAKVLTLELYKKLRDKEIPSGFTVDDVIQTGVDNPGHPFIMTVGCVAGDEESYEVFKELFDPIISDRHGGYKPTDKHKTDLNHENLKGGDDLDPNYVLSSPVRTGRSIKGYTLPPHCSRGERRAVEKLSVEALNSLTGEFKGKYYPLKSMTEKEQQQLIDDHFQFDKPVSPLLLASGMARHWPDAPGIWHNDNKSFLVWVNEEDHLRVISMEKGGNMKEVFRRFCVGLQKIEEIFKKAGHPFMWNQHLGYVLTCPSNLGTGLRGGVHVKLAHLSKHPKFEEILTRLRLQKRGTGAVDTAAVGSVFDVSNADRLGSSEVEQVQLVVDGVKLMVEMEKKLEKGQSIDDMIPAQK
notes: Co-expressed with the CK-B subunit from the single plasmid pTRP-hCKMB; also called CK-M subunit; CK-M
B2: human creatine kinase B type subunit (enzyme)
chain: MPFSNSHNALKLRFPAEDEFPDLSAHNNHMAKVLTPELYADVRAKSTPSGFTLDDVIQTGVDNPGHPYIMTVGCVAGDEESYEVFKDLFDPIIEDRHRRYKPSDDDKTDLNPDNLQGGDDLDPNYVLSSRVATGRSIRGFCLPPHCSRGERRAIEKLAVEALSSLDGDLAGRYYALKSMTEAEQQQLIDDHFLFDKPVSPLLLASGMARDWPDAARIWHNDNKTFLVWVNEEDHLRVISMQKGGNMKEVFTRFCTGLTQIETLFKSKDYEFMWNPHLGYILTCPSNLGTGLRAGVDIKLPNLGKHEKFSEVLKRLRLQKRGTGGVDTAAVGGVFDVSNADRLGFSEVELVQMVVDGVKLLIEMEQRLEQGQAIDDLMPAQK
notes: Co-expressed with the CK-M subunit from the single plasmid pTRP-hCKMB; also called CK-B subunit; CK-B

Legend:
[1] = target: the molecule itself; experiment: co-expression in E. coli; Q-Sepharose separation of dimeric CK isozymes (homodimer)
Experimental: (§1) The cells thus obtained were collected and suspended in a 50 mM phosphate buffer (pH 7.5) containing 5 mM of mercaptoethanol. After disrupting the cells by ultrasonication, the supernatant was referred to as a recombinant CK extract. From this extract, CK was recovered as a precipitate by 70%-saturation ammonium sulfate salting out. The precipitate thus salted out was dissolved in 1.5 M ammonium sulfate (pH 7.5) and subjected to hydrophobic column chromatography by using a Buthyl-Toyopearl C650 gel (manufactured by Tosoh). The CK activity was eluted at 1.5-0 M-gradient (pH 7.5) ammonium sulfate elution. The CK activity elution peaks were combined, concentrated by using an ultrafiltration membrane (YM10, manufactured by Amicon) and then dialyzed against a 50 mM phosphate buffer (pH 7.5). Fractions eluted by the hydrophobic chromatography were adsorbed by a Q-Sepharose column (manufactured by Pharmacia, Sweden) and thus it was attempted to separate CK isozymes.
(§2) As a result, the CK activity was separated into the MM type (unadsorbed fraction), the MB type (elution peak 1) and the BB type (elution peak 2). […] It was thus found out that CK-MB was expressed at a high dose in this recombinant strain. It could be also confirmed that three human recombinant CK isozymes could be prepared by using this expression strain alone. […]

[2] = target: B2; experiment: co-expression in E. coli; Q-Sepharose separation of dimeric CK isozymes; MB fraction purified to electrophoretic homogeneity by Sephacryl-S200HR gel filtration
Experimental: as §1, §2

binding result [2] | Binder | binding result [1]
binds | B1 | binds
– | B2 | binds
